Assay results as given in PMC8085991.

Tested on: Nc1nc2c(ncn2[C@@H]2O[C@H](COP(=O)(O)OP(=O)(O)OP(=O)(O)O)[C@@H](O)[C@H]2O)c(=O)[nH]1
Assay: purified protein
Settings: 59 nM GST-FlhFBb; GTP 0-100 μM; room temperature

“rFlhFBb (BB0270, GST-FlhFBb) (Borreliella burgdorferi B31)” gave a Km of 10.71 ± 2.08 µM, a Vmax of 113 µmol/min and a kcat of 0.0318 ± 0.00133 s⁻¹. The kcat/Km was 2970 M⁻¹ s⁻¹.
